Experiment [1] concerns the target T1, human Fc receptor protein FcRn (human, UniProt P55899 24-297; P61769 21-119, biotinylated).
T1 construct: Biotinylated protein captured on SA sensors
The experiment is described as follows: BLI (ForteBio), biotinylated receptor on SA sensor, antibody from 5,000 nM, 1:1 global fit. From the text: (§1) The dynamic affinity of the antibodies 101A6HZ, 101A6HZm and Hu24 with human Fc receptor proteins CD16a, CD32a, CD32b, CD64 and FcRn was detected through ForteBio (Pall life sciences).

Experiment [2] concerns the target T2, human Fc receptor protein CD32b (human, UniProt P31994 43-217, biotinylated).
T2 construct: Biotinylated protein captured on SA sensors
T2 sequence (looked up): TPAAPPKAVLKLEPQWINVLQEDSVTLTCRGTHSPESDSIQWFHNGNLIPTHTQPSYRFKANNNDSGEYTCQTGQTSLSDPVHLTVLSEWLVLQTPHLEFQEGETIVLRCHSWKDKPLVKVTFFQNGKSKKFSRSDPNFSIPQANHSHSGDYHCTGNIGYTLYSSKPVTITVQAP
In words: BLI (ForteBio), biotinylated receptor on SA sensor, antibody in solution.
Excerpt: as §1

In experiment [3] the target is T3, human Fc receptor protein CD32a (human, UniProt P12318 34-217, biotinylated).
T3 construct: Biotinylated protein captured on SA sensors
T3 sequence (looked up): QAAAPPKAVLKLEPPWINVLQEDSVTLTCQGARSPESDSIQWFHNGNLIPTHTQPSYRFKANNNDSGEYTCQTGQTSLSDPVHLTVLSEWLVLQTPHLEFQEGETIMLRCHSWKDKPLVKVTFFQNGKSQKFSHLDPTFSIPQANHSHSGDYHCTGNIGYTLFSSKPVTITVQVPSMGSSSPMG
Described as above.
Excerpt: as §1

The target of experiment [4] is T4, human Fc receptor protein CD64 (human, UniProt P12314 16-292, limits assumed, biotinylated).
T4 construct: Biotinylated protein captured on SA sensors
Described as above.
Excerpt: as §1

The target in experiment [5] is T5, human Fc receptor protein CD16a (human, UniProt P08637 17-208, biotinylated).
T5 construct: Biotinylated protein captured on SA sensors
Described as above.
Excerpt: as §1

For experiment [6], the target named is T6, human PTK7 on cells (tumor cells endogenously expressing PTK7); CHO-hPTK7, CHO-S-hPTK7 and 293T-hPTK7 … (human, UniProt Q13308 31-1070).
T6 sequence (looked up): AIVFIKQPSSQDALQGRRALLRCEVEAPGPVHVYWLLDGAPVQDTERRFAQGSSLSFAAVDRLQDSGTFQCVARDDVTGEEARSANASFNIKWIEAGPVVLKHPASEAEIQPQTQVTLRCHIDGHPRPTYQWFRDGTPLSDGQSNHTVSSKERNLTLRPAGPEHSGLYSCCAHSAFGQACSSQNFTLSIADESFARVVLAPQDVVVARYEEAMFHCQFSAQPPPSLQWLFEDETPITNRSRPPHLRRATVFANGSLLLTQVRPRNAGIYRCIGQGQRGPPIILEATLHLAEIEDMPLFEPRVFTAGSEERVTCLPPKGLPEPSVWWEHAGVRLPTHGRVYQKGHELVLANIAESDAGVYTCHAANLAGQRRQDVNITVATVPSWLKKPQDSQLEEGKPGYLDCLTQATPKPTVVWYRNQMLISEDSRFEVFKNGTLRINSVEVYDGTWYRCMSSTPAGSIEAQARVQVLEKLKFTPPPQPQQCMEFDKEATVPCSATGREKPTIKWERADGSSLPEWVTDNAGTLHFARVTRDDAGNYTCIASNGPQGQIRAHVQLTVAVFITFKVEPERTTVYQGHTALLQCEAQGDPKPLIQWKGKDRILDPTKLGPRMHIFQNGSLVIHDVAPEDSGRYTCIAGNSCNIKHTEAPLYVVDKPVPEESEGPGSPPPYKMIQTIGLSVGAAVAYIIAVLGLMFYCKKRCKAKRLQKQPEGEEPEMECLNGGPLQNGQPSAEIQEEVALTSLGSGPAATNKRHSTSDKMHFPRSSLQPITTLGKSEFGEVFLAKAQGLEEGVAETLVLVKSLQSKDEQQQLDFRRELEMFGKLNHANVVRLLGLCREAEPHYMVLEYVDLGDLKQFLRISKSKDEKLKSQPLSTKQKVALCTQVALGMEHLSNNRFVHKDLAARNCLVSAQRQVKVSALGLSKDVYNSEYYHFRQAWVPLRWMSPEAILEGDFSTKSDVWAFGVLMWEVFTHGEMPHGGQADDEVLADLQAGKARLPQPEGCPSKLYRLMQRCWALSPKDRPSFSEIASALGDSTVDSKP
The experiment is described as follows: cell-based or functional assay.

T4 sequence (P12314 16-292 limits assumed): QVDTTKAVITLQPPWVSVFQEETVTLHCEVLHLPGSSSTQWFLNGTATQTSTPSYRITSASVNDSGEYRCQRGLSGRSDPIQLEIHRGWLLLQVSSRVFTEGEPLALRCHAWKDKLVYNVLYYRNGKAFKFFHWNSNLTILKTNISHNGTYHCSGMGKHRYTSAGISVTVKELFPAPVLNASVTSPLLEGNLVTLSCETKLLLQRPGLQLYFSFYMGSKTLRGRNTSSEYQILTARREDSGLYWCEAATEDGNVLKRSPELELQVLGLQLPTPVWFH
T1 sequence (P55899 24-297 limits assumed, form in doubt, chain 1 of 2): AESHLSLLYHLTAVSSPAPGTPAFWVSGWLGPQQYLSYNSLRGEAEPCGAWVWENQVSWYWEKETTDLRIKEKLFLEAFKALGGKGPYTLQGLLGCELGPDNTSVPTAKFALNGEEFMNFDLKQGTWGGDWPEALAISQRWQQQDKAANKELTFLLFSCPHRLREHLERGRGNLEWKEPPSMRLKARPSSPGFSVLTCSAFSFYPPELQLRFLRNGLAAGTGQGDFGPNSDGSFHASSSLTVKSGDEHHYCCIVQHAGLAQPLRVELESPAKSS
T1 sequence (P61769 21-119 limits assumed, form in doubt, chain 2 of 2): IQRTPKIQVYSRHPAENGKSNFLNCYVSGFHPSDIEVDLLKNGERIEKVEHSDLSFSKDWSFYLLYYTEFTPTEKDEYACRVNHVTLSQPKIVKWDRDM
T5 sequence (P08637 17-208 limits assumed): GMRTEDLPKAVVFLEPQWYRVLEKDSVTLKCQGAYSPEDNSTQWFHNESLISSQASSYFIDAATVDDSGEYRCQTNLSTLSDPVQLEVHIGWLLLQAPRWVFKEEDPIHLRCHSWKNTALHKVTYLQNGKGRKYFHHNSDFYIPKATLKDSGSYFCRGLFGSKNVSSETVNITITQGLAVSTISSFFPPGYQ

B1: 101A6HZm (101A6HZ with mutant human heavy chain constant region IgG1m) (antibody)
heavy: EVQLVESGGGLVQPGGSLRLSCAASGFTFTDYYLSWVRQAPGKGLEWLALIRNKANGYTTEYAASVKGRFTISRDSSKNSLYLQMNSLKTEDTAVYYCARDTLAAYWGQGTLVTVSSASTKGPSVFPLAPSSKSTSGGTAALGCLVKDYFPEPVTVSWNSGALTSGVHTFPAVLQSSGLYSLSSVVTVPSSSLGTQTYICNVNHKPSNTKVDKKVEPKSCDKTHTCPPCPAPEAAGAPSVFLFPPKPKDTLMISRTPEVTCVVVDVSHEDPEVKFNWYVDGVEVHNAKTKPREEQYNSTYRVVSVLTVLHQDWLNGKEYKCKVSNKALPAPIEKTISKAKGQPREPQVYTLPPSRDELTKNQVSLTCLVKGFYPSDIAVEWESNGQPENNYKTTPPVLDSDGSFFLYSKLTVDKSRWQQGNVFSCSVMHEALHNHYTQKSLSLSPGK
light: DIVMTQSPDSLAVSLGERATINCKASQDVGSAVIWYQQKPGQSPKLLIYWASTRHTGVPDRFSGSGSGTDFTLTISSLQAEDVAVYYCQQYSSYPLTFGQGTKLEIKRTVAAPSVFIFPPSDEQLKSGTASVVCLLNNFYPREAKVQWKVDNALQSGNSQESVTEQDSKDSTYSLSSTLTLSKADYEKHKVYACEVTHQGLSSPVTKSFNRGEC
notes: light chain as in 101A6HZ; also called anti-human PTK7 humanized mutant antibody
As to B1, the Kd in experiment [1] was found to be 16.6 nM. In experiment [2], the binding result was “no binding (tested: initial concentration of 5,000 nM)”. Moreover, the binding result in experiment [3] is “no binding (tested: initial concentration of 5,000 nM)”. Moreover, the binding result in experiment [4] was “no binding (tested: initial concentration of 5,000 nM)”. Further, in experiment [5], the binding result was “no binding (tested: initial concentration of 5,000 nM)”. Also, in experiment [6], the “Cell endocytosis, EC50, A431 cells” value amounted to 0.0732 µg/mL; the “Cell endocytosis, EC50, HCC1806 cells” value came out at 0.0576 µg/mL; the “Cell endocytosis, EC50, NCI-H358 cells” value was 0.0729 µg/mL; the “Cell endocytosis, EC50, OVCAR3 cells” value came out at 0.0665 µg/mL.

Source of the values: patent publication US20260250420A1 (SICHUAN KELUN BIOTECH BIOPHARMACEUTICAL, published 2026).
